US9828595B2, “Thermostable asparaginase variants and polynucleotides encoding same” (Novozymes A/S, priority 2012, dated 2017)
Changes are numbered by the printed parent chain. Names may count otherwise. Values belong to the molecule of their own block, whether it stands above or below them.

Experiments:
[1] = molecular target: T1, Aspergillus oryzae asparaginase, wild type (Wt enzyme), SEQ ID NO: 2 (Aspergillus oryzae, UniProt Q2URI4); test: Effect of xylitol on asparaginase activity, Wt enzyme; type: biochemical; settings: buffer 70.8 g + 29.2 g xylitol, pH 6, 37° C.; activity in buffer without xylitol = 100%
T1 construct: Nessler assay with xylitol or NaCl
Method: (§1) Example 13: Asparaginase Activity Assay—Used in Example 14
(§2) Asparaginase hydrolyses asparagine to aspartic acid and ammonium. Produced ammonium is determined using Nessler's reagent.
(§3) Activity is determined relative to a standard of known activity in ASNU or to a relevant control sample. Activity as determined according to this assay is referred to as nASNU.
(§4) Mix buffer and asparagine and let it equilibrate at 37° C. for 10-15 min. Add enzyme standard or sample and incubate for 10 min at 37° C. Add TCA to stop the reaction.
(§5) Ammonium Determination (Nessler Assay)
(§6) Milli-Q water, sample and Nessler's reagent is added to the microtiter plate. Shake for 10 sec and then leave to incubate for 10 min before shaking again and reading at 440 nm.
(§7) Example 14: Testing the Effect of NaCl and Xylitol on Enzyme Activity
(§8) To test the effect of NaCl or xylitol on asparaginase activity, the compounds were added directly to the buffer and asparaginase activity measured using the standard assay described in Example 13. NaCl was tested in two concentrations and xylitol in one.
(§9) Buffer: 20 mM citric acid buffer, pH 6, 0.001% triton X100:
(§10) Xylitol: 70.8 g buffer+29.2 g xylitol
(§11) The measured activity in the presence of either NaCl or xylitol was compared to the activity in buffer without NaCl and xylitol (set as 100%).

[2] = molecular target: T2, Aspergillus niger asparaginase, wild type, SEQ ID NO: 10 (Aspergillus niger, UniProt A2QBE5); test: Effect of xylitol on asparaginase activity, A. niger wt; type: biochemical; settings: buffer 70.8 g + 29.2 g xylitol, pH 6, 37° C.; activity in buffer without xylitol = 100%
T2 construct: enzyme preparation tested in Nessler assay
T2 sequence (A2QBE5 18-378): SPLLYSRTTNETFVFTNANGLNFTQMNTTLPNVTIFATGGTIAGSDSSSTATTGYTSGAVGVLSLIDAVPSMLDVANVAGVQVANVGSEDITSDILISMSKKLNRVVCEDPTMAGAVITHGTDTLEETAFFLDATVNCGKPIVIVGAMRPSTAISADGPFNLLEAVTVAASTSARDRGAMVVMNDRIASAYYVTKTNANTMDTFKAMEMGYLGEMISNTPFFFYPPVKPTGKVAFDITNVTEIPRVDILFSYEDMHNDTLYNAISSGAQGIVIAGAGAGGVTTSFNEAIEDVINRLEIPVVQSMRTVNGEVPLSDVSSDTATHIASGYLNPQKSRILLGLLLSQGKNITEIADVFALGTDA
Method: as §1, §2, §3, §4, §5, §6, §7, §8, §9, §10, §11

[3] = substrate: NC(=O)C[C@H](N)C(=O)O; test: Km and kcat determination, JN161; type: biochemical, Aspergillus oryzae; settings: other: L-asparagine 0.22-26.6 mM, pH 5.0, 50° C., 10 min
Method: (§12) Example 15: Km and Kcat Determination
(§13) Purified enzyme was diluted with 20 mM sodium acetate buffer pH 5.5 to a solution of a specified activity around 2 rASNU/ml. Ten microliters of enzyme solution was added to 100 microL of preincubated substrate solution containing L-asparagine in different concentration (0.22-26.6 mM) constructed by dissolving L-asparagine monohydrate in 100 mM sodium acetate buffer pH 5.0 including 0.02% TritonX-100. After 10 min incubation at 50° C., the amount of generated ammonia in the reaction mixture was measured by using Ammonia Test Kit (Wako Pure Chemicals, Japan) following the package insert protocol. The Km and Vmax were determined from Michaelis-Menten equation, and kcat was calculated using Vmax.

[4] = substrate: NC(=O)C[C@H](N)C(=O)O; test: Km and kcat determination, JN180; type: biochemical, Aspergillus oryzae; settings: other: L-asparagine 0.22-26.6 mM, pH 5.0, 50° C., 10 min
Method: as §12, §13

[5] = substrate: NC(=O)C[C@H](N)C(=O)O; test: Km and kcat determination, JN182; type: biochemical, Aspergillus oryzae; settings: other: L-asparagine 0.22-26.6 mM, pH 5.0, 50° C., 10 min
Method: as §12, §13

[6] = substrate: NC(=O)C[C@H](N)C(=O)O; test: Km and kcat determination, JN181; type: biochemical, Aspergillus oryzae; settings: other: L-asparagine 0.22-26.6 mM, pH 5.0, 50° C., 10 min
Method: as §12, §13

[7] = substrate: NC(=O)C[C@H](N)C(=O)O; test: Km and kcat determination, JN178; type: biochemical, Aspergillus oryzae; settings: other: L-asparagine 0.22-26.6 mM, pH 5.0, 50° C., 10 min
Method: as §12, §13

[8] = substrate: NC(=O)C[C@H](N)C(=O)O; test: Km and kcat determination, JN183; type: biochemical, Aspergillus oryzae; settings: other: L-asparagine 0.22-26.6 mM, pH 5.0, 50° C., 10 min
Method: as §12, §13

[9] = substrate: NC(=O)C[C@H](N)C(=O)O; test: Km and kcat determination, JN167; type: biochemical, Aspergillus oryzae; settings: other: L-asparagine 0.22-26.6 mM, pH 5.0, 50° C., 10 min
Method: as §12, §13

[10] = substrate: NC(=O)C[C@H](N)C(=O)O; test: Km and kcat determination, WT; type: biochemical, Aspergillus oryzae; settings: other: L-asparagine 0.22-26.6 mM, pH 5.0, 50° C., 10 min
Method: as §12, §13

% activity xylitol [1]: 158%
% activity xylitol [2]: 176%
Molecule: OC[C@@H](O)[C@H](O)[C@@H](O)CO [xylitol]

B1: Aspergillus oryzae asparaginase variant JN161: JN070 (N70K S307A A323R T327V A349Q S351A V353I, SEQ ID NO: 4) with K122A P241E K290V S299A S338W (Aspergillus … (protein)
chain: ATDSNVTYVFTNPNGLNFTQMNTTLPNVTIFATGGTIAGSSADKTATTGYKAGAVGIQTLIDAVPEMLNVANVAGVQVTNVGSPDITSDILLRLSAQINEVVCNDPTMAGAVVTHGTDTLEESAFFLDATVNCRKPVVIVGAMRPSTAISADGPLNLLQSVTVAASPKARDRGALIVMNDRIVSAFYASKTNANTVDTFKAIEMGNLGEVVSNKEYFFYPPVKPTGKTEVDIRNITSIPRVDILYSYEDMHNDTLYSAIDNGAVGIVIAGSGAGSVSTPFAAAMEDITTKHNIPIVRSTRVGNGEVPSSAEWSQIASGYLNPQKARILLGLLLAQGKSIEEMRAVFERIGVA
notes: purified; expressed in Aspergillus
Km [3]: 690 µM
kcat [3]: 172 s⁻¹

B2: Aspergillus oryzae asparaginase variant JN180: JN070 (N70K S307A A323R T327V A349Q S351A V353I, SEQ ID NO: 4) with K122A K240R P241E S299A S334P E337S … (protein)
chain: B1 chain with K214R, V264K, S308P, E311S, W312S
notes: as for B1
Km [4]: 830 µM
kcat [4]: 185 s⁻¹

B3: Aspergillus oryzae asparaginase variant JN182: JN070 (N70K S307A A323R T327V A349Q S351A V353I, SEQ ID NO: 4) with K122A P241E S299A S334P E337S (Aspergillus … (protein)
chain: B1 chain with V264K, S308P, E311S, W312S
notes: as for B1
Km [5]: 910 µM
kcat [5]: 186 s⁻¹

B4: Aspergillus oryzae asparaginase variant JN181: JN070 (N70K S307A A323R T327V A349Q S351A V353I, SEQ ID NO: 4) with K122A K240R P241E K253R S299A S334P E337S … (protein)
chain: B1 chain with K214R, K227R, V264K, S308P, E311S, W312S
notes: as for B1
Km [6]: 580 µM
kcat [6]: 138 s⁻¹

B5: Aspergillus oryzae asparaginase variant JN178: JN070 (N70K S307A A323R T327V A349Q S351A V353I, SEQ ID NO: 4) with K122A K240R P241E S299A S334P (Aspergillus … (protein)
chain: B1 chain with K214R, V264K, S308P, W312S
notes: as for B1
Km [7]: 880 µM
kcat [7]: 127 s⁻¹

B6: Aspergillus oryzae asparaginase variant JN183: JN070 (N70K S307A A323R T327V A349Q S351A V353I, SEQ ID NO: 4) with K122A P241E S299A S334P S338W (Aspergillus … (protein)
chain: B1 chain with V264K, S308P
notes: as for B1
Km [8]: 910 µM
kcat [8]: 189 s⁻¹

B7: Aspergillus oryzae asparaginase variant JN167: JN070 (N70K S307A A323R T327V A349Q S351A V353I, SEQ ID NO: 4) with K122A P241E S299A S334P (Aspergillus oryzae … (protein)
chain: B1 chain with V264K, S308P, W312S
notes: as for B1
Km [9]: 670 µM
kcat [9]: 127 s⁻¹

B8: Aspergillus oryzae asparaginase, wild type (WT), SEQ ID NO: 2 (Aspergillus oryzae RIB40) (protein)
chain: ATDSNVTYVFTNPNGLNFTQMNTTLPNVTIFATGGTIAGSSADNTATTGYKAGAVGIQTLIDAVPEMLNVANVAGVQVTNVGSPDITSDILLRLSKQINEVVCNDPTMAGAVVTHGTDTLEESAFFLDATVNCRKPVVIVGAMRPSTAISADGPLNLLQSVTVAASPKARDRGALIVMNDRIVSAFYASKTNANTVDTFKAIEMGNLGEVVSNKPYFFYPPVKPTGKTEVDIRNITSIPRVDILYSYEDMHNDTLYSAIDNGAKGIVIAGSGSGSVSTPFSAAMEDITTKHNIPIVASTRTGNGEVPSSAESSQIASGYLNPAKSRVLLGLLLAQGKSIEEMRAVFERIGVA
notes: purified
Km [10]: 950 µM
kcat [10]: 121 s⁻¹
